According to patent publication US8669347B2, “Truncated variant of the mammalian target for rapamycin (MTOR) protein” (UCL Business PLC, priority 2007, dated 2014):

Key:
Raptor, Rictor, and GβL = experiment: Co-immunoprecipitation with mTOR binding partners in HEK293 cells; conditions: anti-FLAG immunoprecipitation from transfected HEK293 cells
Method: HEK293 cells were transfected with pcDNA3.1-mTORβ-FLAG and pRK-Raptor-HA or pcDNA3.1-mTORβ-FLAG and pRK-Rictor-Myc or pcDNA3.1-mTORβ-FLAG and pcRK-GβL. The supernatants of lysed cells were immunoprecipitated with anti-FLAG antibody or control nonspecific antibody. The immune complexes or total cell lysates from transfected cells (15 μg) were resolved by SDS-PAGE and probed in Western blotting with anti-HA, anti-Rictor, or anti-GβL antibodies.
HEK293 cells were washed with ice-cold phosphate-buffered saline (PBS) and extracted with the lysis buffer containing 50 mM HEPES (pH 7.5), 150 mM NaCl, 1% (v/v) Triton X100, 2 mM EDTA, 50 mM sodium fluoride, 10 mM sodium pyrophosphate, 1 mM sodium orthovanadate, and a mixture of protease inhibitors (Roche Applied Science). Whole-cell extracts were centrifuged at 10,000×g for 30 minutes at 4° C. Endogenous or transiently expressed proteins were immunoprecipitated with corresponding antibodies immobilized on protein A-Sepharose beads (Amersham Biosciences) for 3 hours at 4° C. The immune complexes were then washed once with Tris-buffered saline containing 0.05% Tween 20 and the Wash Buffer 1 (50 mM HEPES [pH 7.5], 40 mM NaCl, and 2 mM EDTA) with 1% Triton X-100, Wash Buffer 1 with 500 mM LiCl and 0.5% Triton X-100, Wash Buffer 1 with 500 mM LiCl, and Wash Buffer 2 (50 mM HEPES [pH 7.5] and 150 mM NaCl). […]

c-Myc = experiment: Western blot of c-Myc protein level in transfected HEK293 cells; format: cell-based, human; conditions: HEK293 transiently transfected, lysed two days after transfection
Method: (§1) Hek293 stable cell lines, over-expressing mTORβ wt, mTORα wt or EGFP were seeded into a 96 well plate at various densities (250, 500, 1000 and 2000 cells per well) and grown under standard conditions for 7 days. Cell numbers were than measured in each well by a Resosurin based assay. Normalized growth curves for each cell line were calculated using data from six independent experiments (A). Western blot analysis of total cell lysates of stable cell lines with antibodies to c-myc and its transcription targets (B). The level of proteins was densitometrically measured, actin normalized and folds were calculated against EGFP expressing stable cell line (C).
(§2) HEK293 stable cell lines, overexpressing mTORβ wt, mTORβ kinase-dead or EGFP were seeded into 96 well plate at various densities (1000, 2000, 4000 and 8000 cells per well) and grown under standard conditions for 5 days. Cell numbers were then measured in each well by Resazurin based assay. Normalized growth curves for each cell line were calculated using data from six independent experiments (A). Western blot analysis of total cell lysates of stable cell lines with antibodies to c-myc and its transcription targets. The level of proteins was densitometrically measured, actin normalized and folds were calculated against EGFP expressing stable cell line (B). […]

S6K1 = experiment: mTOR in vitro kinase assay, His-S6K1C substrate; format: biochemical; conditions: FLAG immunoprecipitate from Hek293 cells, compared with mTORα
Method: (§3) HEK293 cells were transfected with pcDNA3.1 or pcDNA 3.1 mTORβ. One day later, cells were starved for 24 hours and than stimulated with 10% fetal bovine serum for 1 hour. Rapamycin (10 nM) was added 30 minutes before stimulation. Cells were lysed, resolved by SDS-PAGE and immunobloted with the C-terminal anti-mTOR and pS2448 mTOR antibodies. […] Two days later, cells were lysed and immunoprecipitated with anti-FLAG antibody. The immune complexes were used in mTOR in vitro kinase assay with His-4E-BP1 and His-S6K1C as substrates. Kinase reactions were resolved by SDS-PAGE and immunoblotted with phosphospecific antibodies to 4E-BP1 p65 and S6K1 p389. The level of immunoprecipitated FLAG-mTORα and FLAG-mTORβ was measured by Western blotting with anti-FLAG.
(§4) Is mTORβ able to phosphorylate S6K and 4E-BP1, which are the main physiological substrates for mTORα? […] The immune complexes were then used in mTOR kinase reactions, containing cold ATP and recombinant 4E-BP1 or His-S6K1C. The kinase reactions were resolved by SDS-PAGE and immunoblotted with phosphospecific antibodies pT389-S6K1 and pS65-4E-BP1.
(§5) mTOR in vitro kinase assay was performed as published previously (Kim et al. 2002). […] The reactions were stopped by adding 5× sample buffer and resolved by SDS-PAGE and analyzed by immunoblotting.

Hek293 stable cell lines [1] = experiment: Cell proliferation assay (Resazurin based) of Hek293 stable cell lines; parameters: species or system human; conditions: six independent studies
Method: as §1, §2

Hek293 stable cell lines [2] = experiment: Serum starvation cell survival, Trypan Blue dye exclusion assay; format: cell-based, human; conditions: stable overexpressing lines serum starved for 60 hours
Method: Hek293 stable cell lines, overexpressing mTORβ wt, mTORα wt, mTORβ kinase dead or EGFP were serum starved for 60 hours. Cell survival was assessed by the Trypan Blue dye exclusion assay. Data are means±SE of 5 experiments. * P value≦0.01.
The effects of mTORβ in serum starved cells were also assessed. Hek293 stable cell lines, overexpressing mTORβ wt, mTORα wt, mTORβ kinase dead or EGFP were serum starved for 60 hours. Cell survival was assessed by the Trypan Blue dye exclusion assay.

Hek293 cells [3] = experiment: BrdU pulse-chase cell cycle analysis by FACS; format: cell-based, human; conditions: overexpressing cells vs mTORα or control (EGFP) cells; BrdU 30 minutes, chased 24 hours
Method: HEK293 cells stably overexpressing mTORβ, mTORα or EGFP were pulse labeled with BrdU for 30 minutes and chased every 2 hours for 24 hours. The incorporation of BrdU was measured by FACS analysis. Duration of G1, S and G2 phases of cell cycle observed for each cell line is presented on graph. SD, p=0.05.
To further investigate the role of mTORβ in the cell cycle, Hek293 cells overexpressing mTORβ, mTORα or EGFP were pulse labeled with BrdU for 30 minutes and chased every 2 hours for 24 hours. Incorporation of BrdU into the cells was measured by FACS analysis. The duration of the G1, S and G2 phases of cell cycle observed for each cell line was determined (see FIG. 12). The duration of S and G2 phases were similar in all three cell groups. However, the duration of the G1 phase was shorter in the mTORβ overexpressing cells than in the mTORα or control cells.

4E-BP1 = experiment: mTOR in vitro kinase assay, 4E-BP1 substrate; format: biochemical; conditions: FLAG immunoprecipitate from Hek293 cells, recombinant 4E-BP1 substrate, compared with mTORα
Method: as §3, §4, §5

Hek293 cells [4] = experiment: Recovery from Sorbitol-induced stress; format: cell-based, human; conditions: overexpressing cells, compared with mTORα overexpressing cells
Hek293 cells [5] = experiment: Colony formation in agarose (oncogenic potential); format: cell-based, human; conditions: stably overexpressing cells, 14 days, MTT stain, compared with mTORα and control cells
Method: HEK293 cells stably overexpressing mTORβ, mTORα or EGFP were plated in a thin layer of agarose in culture medium. After 14 days, colonies were stained using MTT (A). Colonies were counted using Quantity One Software (Bio-Rad) and folds were plotted (B). Data are means±SE of 4 experiments. * P value≦0.01.
To further investigate the effect of mTORβ expression on cell oncogenic potential, Hek293 cells stably overexpressing mTORβ, mTORα or EGFP were plated in a thin layer of agarose in culture medium. After 14 days, colonies were stained using MTT (see FIG. 14A). Colonies were counted using quantity 1 software (Bio-Rad) and folds were plotted (see FIG. 14B).

B1: mTORβ: splice form of mTOR: fusion of amino acids 1 to 23 and 1867 to 2549 of mTORα, 706 amino acids (SEQ ID NO: 2) (protein, listed as Homo sapiens)
chain: MLGTGPAAATTAATTSSNVSVLQKKVTEDLSKTLLMYTVPAVQGFFRSISLSRGNNLQDTLRVLTLWFDYGHWPDVNEALVEGVKAIQIDTWLQVIPQLIARIDTPRPLVGRLIHQLLTDIGRYHPQALIYPLTVASKSTTTARHNAANKILKNMCEHSNTLVQQAMMVSEELIRVAILWHEMWHEGLEEASRLYFGERNVKGMFEVLEPLHAMMERGPQTLKETSFNQAYGRDLMEAQEWCRKYMKSGNVKDLTQAWDLYYHVFRRISKQLPQLTSLELQYVSPKLLMCRDLELAVPGTYDPNQPIIRIQSIAPSLQVITSKQRPRKLTLMGSNGHEFVFLLKGHEDLRQDERVMQLFGLVNTLLANDPTSLRKNLSIQRYAVIPLSTNSGLIGWVPHCDTLHALIRDYREKKKILLNIEHRIMLRMAPDYDHLTLMQKVEVFEHAVNNTAGDDLAKLLWLKSPSSEVWFDRRTNYTRSLAVMSMVGYILGLGDRHPSNLMLDRLSGKILHIDFGDCFEVAMTREKFPEKIPFRLTRMLTNAMEVTGLDGNYRITCHTVMEVLREHKDSVMAVLEAFVYDPLLNWRLMDTNTKGNKRSRTRTDSYSAGQSVEILDGVELGEPAHKKTGTTVPESIHSFIGDGLVKPEALNKKAIQIINRVRDKLTGRDFSHDDTLDVPTQVELLIKQATSHENLCQCYIGWCPFW
Raptor, Rictor, and GβL
  complex formation with exogenously expressed Raptor, Rictor, and GβL: form specific complexes
c-Myc
  c-Myc protein level: significant increase
S6K1
  phosphorylation of S6K1 (pT389) in vitro: to a lesser extent than mTORα
Hek293 stable cell lines [1]; overexpressing stable lines grown 5 days
  proliferation rate in comparison to control (EGFP) cells: approximately 1.6 times faster
Hek293 stable cell lines [1]; overexpressing stable lines grown 7 days
  proliferation compared to control (EGFP) cells: proliferate faster
Hek293 stable cell lines [2]
  cell survival after serum starvation: protected cells from starvation induced cell death
Hek293 cells [3]
  duration of the G1 phase: shorter
4E-BP1
  phosphorylation of 4E-BP1 (pS65) in vitro: to a lesser extent than mTORα
Hek293 cells [4]
  recovery from Sorbitol-induced stress: much faster
Hek293 cells [5]
  cell oncogenic potential (colonies in agarose): increase in cell oncogenic potential
